Data published in US8574882B2, “Thermostable 1,5-anhydroglucitol dehydrogenase, and method for measurement of 1,5-anhydroglucitol by using the same” (Nippon Kayaku Kabushiki Kaisha, priority 2008, dated 2013).
Changes are numbered by the printed parent chain. Names may count otherwise.

B1: Ver. 0: recombinant parent strain (Pseudomonas sp. NK-85001)-derived 1,5-AG dehydrogenase, SEQ ID NO: 4, no thermostability (protein)
chain: MEFGGQPDIVIIGSGIGGASIAAGLSASGADILILEAGESLPDRPENRDPHAIFQRGFFRPKEFWYETDGTPFNPGNYYNVGGNSKFYGAVLVRYRREDFEELAHLEGVSPAWPFAYDELEPWYCKAEELFQVRGELGDDPTEPYHSKPYSYPAIRDESPIADLRARLKKAGLHPASLPLGVDIERWLAKAKTPWDAHPNSNDGKMDAETCPLALALKHPNVGLETSARVTKLETGPDGKTIVAVHYVKNGEALVLRPKLVILSAGAVQSAALLLRSGLANRSDQVGRNFMNHNASAVIGFDPRYRNDSVYQKTFGFNDYYLSDGAGGPPLGNVQLLGRVSGAILKSNMRQVPEWFLNRIAGHTIDFYAMSEDLPSPESRVSVDGDRIILHWVRSNWKAHLMLVDKLKSALRAAGFPVVLSRAFDRRTPSHQCGTVRIGDNPATAPLDPYCRAYDHPNLYVVDASFLPTSAAVNPALTIAAQALRVADHLNREVLA
modifications: Pseudomonas sp. NK-85001
B2: Ver. 7.1: thermostable 1,5-AG dehydrogenase, SEQ ID NO: 23; Ver. 7.0 plus G4A (protein)
chain: B1 chain with G4A, S14T, A37T, P50Q, V93M, L164M, T235A, N348Y, G362R
modifications: Mutated 1,5-anhydroglucitol dehydrogenase gene
notes: Ver; 7.0 plus G4A
B3: Ver. 3.2: thermostable 1,5-AG dehydrogenase, protein 17); net vs SEQ ID NO: 4: A37T, P50Q, L164M, G362R (protein)
chain: B1 chain with A37T, P50Q, L164M, G362R
modifications: Pseudomonas sp. NK-85001
B4: Ver. 11.1: thermostable 1,5-AG dehydrogenase; SEQ ID NO: 1 having an arginine residue in place of proline at position 156 (protein)
chain: MEFAGQPDIVIIGTGIGGASIAAGLSASGADILILERGESLPDRPENRDQHAIFQRGFFRPKEFWYGTDGTPFNPGNYYYVGGNSKFYGAVLMRYRREDFEELAHLEGVSPAWPFAYDELEPWYCKAEELFQVRGELGDDPTEPYHSKPYSYPAIRDESPIADMRARLKKAGLHPASLPLGVDIERWLAKAKTPWDAHPNSDDGKMDAETCPLALALKHPNVGLETSARVTKLEAGPDGKTIVAVHYVKNGEALVLRPKLVILSAGAVQSAALLLRSGLANRSDQVGRNFMNHNASAVIGFDPRYRNDSVYQKTFGFNDYYLSDGAGGPPLGNVQLLGRVSGAILKSYMRQVPEWFLNRIARHTIDFYAMSEDLPSPESRVSVDGDRIILHWVRSNWKAHLMLVDKLKSALRAAGFPVVLSRAFDRRTPSHQCGTVRIGDNPATAPLDPYCRAYDHPNLYVVDASFLPTSAAANPALTIAAQALRVADHLNREVLA
modifications: Protein expressed by mutated 1,5-anhydroglucitol dehydrogenase gene
B5: Ver. 12.0: thermostable 1,5-AG dehydrogenase comprising the amino acid sequence represented by SEQ ID NO: 1 (protein)
chain: B4 chain with R156P
modifications: Protein expressed by mutated 1,5-anhydroglucitol dehydrogenase gene
B6: Ver. 11.0: thermostable 1,5-AG dehydrogenase; SEQ ID NO: 1 having arginine at position 156 and valine at position 473 (protein)
chain: B4 chain with A473V
modifications: Protein expressed by mutated 1,5-anhydroglucitol dehydrogenase gene

Legend:
[1] = Stability of thermostable 1,5-AG dehydrogenase at heat treatment temperature (rate of residual activity); assay type: physicochemical; details: for Rate of residual activity after 10-minute treatment at 45° C. / Rate of residual activity after 10-minute treatment at 50° C. / Rate of residual activity after 10-minute treatment at 55° C. / Rate of residual activity after 10-minute treatment at 60° C.: crude enzyme solution, 10 minutes; for Rate of residual activity after 10-minute treatment at 45° C.: water bath 45° C.; for Rate of residual activity after 10-minute treatment at 50° C.: water bath 50° C.; for Rate of residual activity after 10-minute treatment at 55° C.: water bath 55° C.; for Rate of residual activity after 10-minute treatment at 60° C.: water bath 60° C.
Procedure: (§1) The E. coli JM109 containing the gene encoding each thermostable 1,5-AG dehydrogenase obtained in the paragraphs to [4] of EXAMPLE 2 was transplanted to 10 mL of an LB liquid medium containing 50 μg/mL ampicillin and 0.1 mM IPTG and shake-cultured at 30° C. for 16 hours. 10 mL of the shake-culture solution was centrifuged at 10000 rpm for 5 minutes. The culture supernatant was removed, and the pellet was then washed twice with a 0.85% aqueous NaCl solution. These microbial cells were suspended in 1 mL of a 50 mM sodium phosphate buffer (pH 7.5) containing 0.25% Triton X-100. The microbial cells were disrupted using a bead impact-type cell disrupter MINI-BEAD BEATER (30 seconds×4, manufactured by Central Scientific Commerce, Inc.) while cooled in ice. After centrifugation at 15000 rpm for 10 minutes, the supernatant was used as a crude enzyme solution. When the crude enzyme solution was heat-treated, the treatment was performed for 10 minutes in a water bath of 45° C., 50° C., 55° C. or 60° C.
(§2) The enzymatic activity of the 1,5-AG dehydrogenase was calculated by measurement by the same approach as that described in the paragraph (J) of EXAMPLE 1.
(§3) A specific activity that represents the enzymatic activity of the 1,5-AG dehydrogenase per mg of the crude enzyme solution was calculated according to the following equation: Specific activity (U/mg)=enzymatic activity (U/mL)/protein concentration of crude enzyme solution (mg/mL). Moreover, the rate of residual activity was calculated according to the following equation: Rate of residual activity (%)=(specific activity of crude enzyme solution after heat treatment/specific activity of crude enzyme solution before heat treatment)×100.

[2] = 1,5-AG dehydrogenase activity determination of crude enzyme solution (L-sorbose, DCIP, 1-m-PMS, decrease in absorbance at 600 nm); assay type: biochemical; details: L-sorbose as substrate, 37° C.; for Specific activity: crude enzyme solution
Procedure: The E. coli JM109 strains transformed with the pTrc-PS15DH vectors confirmed in the paragraph (I) to have the insert fragment were inoculated to 3 mL of an LB medium containing 100 μg/mL ampicillin and cultured at 28° C. for 14 hours. Of this culture solution, a 0.2 mL aliquot was inoculated to 10 mL of an LB medium (containing 100 μg/mL ampicillin). Approximately 3 hours later, the rise of OD600 of the culture solution to 0.4 to 0.7 was confirmed, and 1,5-AG dehydrogenase expression in E. coli was then induced by the addition of 0.1 M IPTG (final concentration: 0.1 mM) to the medium. This culture solution was further cultured overnight at 28° C. and centrifuged at 10000×g for 5 minutes to precipitate cells. The supernatant was removed, and the pellet was then washed twice with a 0.85% aqueous NaCl solution. Cells were precipitated by centrifugation. Then, the microbial cells were suspended in 1 mL of a 50 mM sodium phosphate buffer, pH 7.5. Triton X-100 was added thereto at a concentration of 0.25%, and the microbial cells were disrupted using a bead impact-type cell disrupter MINI-BEAD BEATER (30 seconds×4, manufactured by Central Scientific Commerce, Inc.) while cooled in ice. After centrifugation at 20000×g for 10 minutes, the supernatant was examined as a crude enzyme solution for its 1,5-AG dehydrogenase activity. The composition of the reaction solution is as described below. Since the 1,5-AG dehydrogenase also reacts with L-sorbose as its substrate, L-sorbose was used for convenience instead of 1,5-AG in the enzymatic activity determination.
Composition of Reaction Solution:
The components other than the crude enzyme solution are mixed and kept at 37° C. for 10 minutes. Then, the crude enzyme solution is added to the reaction solution to initiate reaction. Decrease in absorbance at 600 nm for 1 minute with the temperature kept at 37° C. is determined.
The enzymatic activity can be determined according to the following equation: Enzymatic activity (U/mL)=(Δ600/min×0.6 (mL)×dilution ratio of crude enzyme solution)/(16.3×0.01 (mL)).
as §1, §2, §3
The 1,5-AG dehydrogenase activity was determined based on the method described in EXAMPLE 1, and its specific activity was determined according to the equation described in EXAMPLE 3.

Molecule | Rate of residual activity after 10-minute treatment at 45° C. [1] [%] | Enzymatic activity of the crude enzyme solution ([2]; E. coli JM109 / pTrc-PS15DH) [U/mL] | Specific activity [2] [U/mg] | Rate of residual activity after 10-minute treatment at 50° C. [1] [%] | Rate of residual activity after 10-minute treatment at 55° C. [1] [%] | Thermostability compared with the version(s) it was prepared from ([1]; Ver. 4.0 vs Ver. 3.2, Ver. 3.2 vs Ver. 3.0 and Ver. 3.1) | Rate of residual activity after 10-minute treatment at 60° C. [1] [%]
B1 | 3.0 | 4.4 | 1.2 | – | – | – | –
B2 | 89.0 | – | 2.8 | 61.0 | 10.0 | – | –
B3 | 68.0 | – | 2.0 | 14.0 | – | improved thermostability | –
B4 | – | – | 0.8 | – | – | – | 73
B5 | – | – | 1.2 | – | – | – | 76
B6 | 97.0 | – | 3.4 | 97.0 | 81.0 | – | –
